# According to PMC8699718, “A structurally conserved site in AUP1 binds the E2 enzyme UBE2G2 and is essential for ER-associated degradation” (PLoS Biology, 2021):
# Ends that are not written are not given here.
# T1: purified UBE2G2 (UniProt P60604 1-165, ^15N-labeled for NMR)
# T1 chain: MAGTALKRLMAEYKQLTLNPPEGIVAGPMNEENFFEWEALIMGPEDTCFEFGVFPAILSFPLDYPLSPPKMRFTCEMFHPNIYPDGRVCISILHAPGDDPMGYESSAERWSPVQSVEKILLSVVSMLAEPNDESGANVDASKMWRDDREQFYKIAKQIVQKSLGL
# T2: UBE2G2 (Homo sapiens, UniProt P60604)
# T2 construct: made in house
# T2 sequence (P60604 1-165): T1 chain
# T3: purified UBE2G2 (UniProt P60604 1-165, ^15N-labeled for NMR)
# T3 construct: UBE2G2, purified recombinant protein used for ITC, FP, MST and NMR; also called apo-UBE2G2; ^15N-labeled UBE2G2
# T3 sequence (looked up): T1 chain
# B1: L386D/Y394D: AUP1 point mutant; GST-AUP1 aa 292 to 410 in vitro, full-length AUP1-FLAG in cells (protein)
# chain: SPDVQLATLAQRVKEVLPHVPLGVIQRDLAKTGCVDLTITNLLEGAVAFMPEDITKGTQSLPTASASKFPSSGPVTPQPTALTFAKSSWARQESDQERKQALDEYARRRFTERRAQEAD
# modifications: left off: GST, end not stated, kept
# notes: AUP1 point mutant; GST-AUP1 aa 292 to 410 in vitro, full-length AUP1-FLAG in cells
# B2: G2BR^AUP1 peptide (aa 378 to 404) (peptide)
# peptide: SSWARQESLQERKQALYEYARRRFTER
# notes: also called AUP1 G2BR; source: synthetic peptide (GenScript)
# B3: G2BR^gp78 peptide (aa 574 to 600, with an added N-terminal Trp) (peptide)
# peptide: WSADERQRMLVQRKDELLQQARKRFLNK
# notes: N-terminal Trp residue added for peptide quantification; Natural stretch with one extra N-terminal Trp added for quantification; also called gp78 G2BR; source: synthetic peptide (GenScript)
# What was measured:
# [1] = tested on: UBE2G2; test: CHX chase: UBE2G2 turnover in HT1080 AUP1 KO cells; type: cell-based, human; details: GFP fusion transfected with MYC-UBE2G2, HT1080 AUP1 KO, compared with GFP-SCR
# Protocol: Fig 7 G2BR^AUP1 protects UBE2G2 from degradation. (A) Indicated cells were assessed for steady state levels and turnover of endogenous UBE2G2 by CHX chase. (B) Transcript levels of endogenous UBE2G2 in AUP1 KO cells compared to HT1080 as determined by qPCR. Mean and standard deviation from three independent experiments is shown. […] (D) AUP1 KO cells were transfected with plasmids encoding MYC-UBE2G2 and GFP fusions of either a scrambled G2BR (SCR), G2BR^gp78, or G2BR^AUP1, and the turnover of UBE2G2 was assessed. (E) Relative abundance of gp78 (left panel) and AUP1 (right panel) in HT1080 cells was determined by resolving indicated amounts (in pmoles) of purified GST-gp78 (aa 429 to 611) or GST-AUP1 (aa 61 to 410) fusions alongside approximately 1 × 10^4 cellular equivalents of cell lysate and immunoblotting with gp78 or AUP1 antibodies. For each antibody, the amount of immunoreactivity in the lysate was compared to a defined quantity of a GST fusion protein of gp78 or AUP1 spanning the epitope recognized by the probing antibody. […] The data underlying this figure can be found in S1 and S8 Data. aa, amino acid; AUP1, ancient ubiquitous protein 1; CHX, cycloheximide; G2BR, UBE2G2 Binding Region; KO, knockout; qPCR, quantitative polymerase chain reaction; WT, wild type. […]
# [2] = biological target: T1, purified UBE2G2; test: FP
# [3] = biological target: T1, purified UBE2G2; test: MST
# [4] = biological target: T2, UBE2G2; test: GST pulldown of in vitro translated 35S-UBE2G2; type: binding; details: GST-AUP1 aa 292 to 410 on glutathione beads, ~3 pmol GST fusion, ~0.2 pmol E2, overnight 4°C, pH 7.4
# Protocol: Fig 3 The AUP1–UBE2G2 interaction is required for ERAD. (A) Equimolar amounts of GST-AUP1 (aa 292 to 410) or GST were immobilized on glutathione beads and binding to the indicated in vitro translated ^35S-labeled E2s was assessed. Left panel is 5% of input used for binding. E2s are referred to by their unique alpha-numeric designation (e.g., UBE2G1 and UBE2J1). (B) HT1080 or UBE2G2 KO cells were transfected with INSIG-1-MYC and degradation assessed by CHX chase. […] (D) Cells were transfected with NHK-MYC and HA-ubiquitin and ubiquitination of NHK assessed following proteasome inhibition and IP (right panel). Left panel is 10% of total cell lysate used for IP, indicating no discernable change in total ubiquitination. (E) Levels of endogenous HRD1 were monitored by CHX chase in the indicated cell types. (F) Ubiquitination of endogenous HRD1 was assessed following IP with HRD1 antiserum. Arrow in upper panel indicates migration of unmodified HRD1. Control immunoprecipitates using rabbit serum are shown for comparison. The data underlying this figure can be found in S1 Data. aa, amino acid; AUP1, ancient ubiquitous protein 1; CHX, cycloheximide; ERAD, endoplasmic reticulum–associated degradation; IP, immunoprecipitation; KO, knockout; WT, wild type.
# (§1) Fig 6 Disruption of UBE2G2:G2BR^AUP1 interaction abrogates AUP1 function in cells. (A) GST or indicated GST-AUP1 fusions (aa 292 to 410, expression shown in Coomassie-stained gel) were immobilized on glutathione beads and binding to ^35S-UBE2G2 was assessed as in Fig 3A. Mutations include 2A (R382A/Q383A), 2E (R382E/Q383E), and 5E (R382E/Q383E/K390E/R398E/R400E). (B) AUP1 KO cells were transfected with NHK-HA and forms of full-length AUP1-FLAG with the indicated point mutations from (A) and NHK degradation assessed by CHX chase. (C) Binding assay performed as in (A) with AUP1 mutants predicted to disrupt hydrophobic interactions with UBE2G2. (D) Cellular assay performed as in (B) with AUP1-FLAG mutants that disrupt interactions with UBE2G2 in vitro in (C). The data underlying this figure can be found in S1 Data. aa, amino acid; AUP1, ancient ubiquitous protein 1; CHX, cycloheximide; G2BR, UBE2G2 Binding Region; KO, knockout; WT, wild type.
# In vitro translated ^35S methionine-labeled E2s were generated using the E. coli T7-S30 Extract System (Promega) and excess ^35S methionine was removed by desalting twice with Zeba Spin Desalting Columns (Thermo Scientific). GST fusion proteins were quantified by Coomassie blue staining. Moreover, 0.1 μg of GST fusion protein (approximately 3 pmol) was prebound to GS 4B (GE Healthcare) and then incubated with approximately 10^5 cpm of ^35S methionine-labeled E2 (approximately 0.2 pmol) in 200 μl Binding Buffer (25 mM Tris-HCl, pH 7.4, 50 mM NaCl, 5 mM DTT, 0.5% IGEPAL CA-630) overnight at 4°C. Beads were extensively washed in Binding Buffer, resolved on Bis/Tris polyacrylamide gels under reducing conditions, dried and visualized on a Typhoon FLA 7000 (GE Healthcare). Binding was quantified using ImageQuant Software.
# [5] = tested on: NHK (Null Hong Kong variant of alpha1-antitrypsin); test: CHX chase: NHK degradation in HT1080 AUP1 KO cells; type: cell-based, human; details: full-length or deleted AUP1-FLAG re-expressed in HT1080 AUP1 KO cells, CHX 50 μg/mL
# Protocol: Fig 1 The G2BR of AUP1 is required for ERAD of NHK. (A) HT1080 or cells in which HRD1 was knocked out by CRISPR/Cas-9 (HRD1 KO) were transfected with plasmid encoding carboxyl-terminally HA-tagged NHK. Cells were treated with CHX for the indicated times to inhibit protein synthesis and NHK-HA degradation monitored by western blot. GFP and HSP60 serve as transfection efficiency and gel loading controls, respectively. (B) HT1080 or cells in which either AUP1 or gp78 was knocked out (AUP1 KO or gp78 KO) were transfected with NHK-HA and their degradation assessed. (C) AUP1 KO cells were transfected with NHK-HA and empty vector or plasmid encoding carboxyl-terminally FLAG-tagged AUP1 and NHK degradation assessed. (D) Indicated cells were transfected with plasmid encoding carboxyl-terminally MYC-tagged INSIG-1 and assessed for INSIG-1 degradation. (E) Schematic representation of AUP1 in the ER membrane and deletion mutants used in subsequent experiments. Amino acid residues are numbered spanning each domain. (F) AUP1 KO cells were transfected with NHK-HA and plasmids encoding the indicated FLAG-tagged AUP1 WT or deletion mutants and assessed for NHK degradation. (G) HEK293 (Parental) or HEK293 AUP1 KO cells were assessed for degradation of NHK-HA. (H) HEK293 AUP1 KO cells were assessed for NHK-HA degradation as in (F). Markers represent apparent molecular weight in kDa. The data underlying this figure can be found in S1 Data. aa, amino acid; AUP1, ancient ubiquitous protein 1; CHX, cycloheximide; ER, endoplasmic reticulum; ERAD, endoplasmic reticulum–associated degradation; G2BR, UBE2G2 Binding Region; KO, knockout; NHK, Null Hong Kong; WT, wild type.
# as §1
# Fig 8 Recruitment of UBE2G2 to the ER membrane and activation by G2BR^AUP1 is required for ERAD. (A) HT1080 or AUP1 KO cells were transfected with NHK-HA and either empty vector or MYC-UBE2G2 and NHK turnover assessed by CHX chase. (B) AUP1 KO cells were transfected with NHK-HA and GFP fusions of either a scrambled G2BR sequence (SCR) or G2BR^AUP1 and NHK turnover and levels of endogenous UBE2G2 assessed. Luciferase and β-actin served as transfection efficiency and gel loading controls, respectively. (C) AUP1 KO cells were transfected with NHK-HA, MYC-UBE2G2, and either GFP-SCR or GFP-G2BR^AUP1 and NHK turnover assessed. (D) Membrane fractionation was performed on HT1080 or AUP1 KO cells transfected with either empty vector or AUP1-FLAG and localization of UBE2G2 assessed by western blotting. Localization of β-actin (cytosol) and Calnexin (ER membrane) were used as controls for cytosolic (C) and membrane (M) fractions, respectively. (E) Membrane fractionation of AUP1 KO cells transfected with either MYC-UBE2G2 or TM-UBE2G2. (F) HT1080 cells were transfected with TM-UBE2G2 and its localization assessed by confocal microscopy. Images shown are from an optical section after deconvolution. HA-tagged UBE2J2, an ER-localized E2, serves as an ER marker. […]
# [6] = biological target: T3, purified UBE2G2; test: ITC; 30 μM G2BR peptide injected into 3 μM UBE2G2 in the cell, PBS pH 7.4, 25°C, one set of sites model; details: both partners purified
Molecule,Kd [2] [nM],Kd [3] [nM],Kd [6] [nM],other results
GFP-G2BR^gp78: GFP fusion of gp78 aa 574 to 600,–,–,–,UBE2G2 degradation and steady state level [1]: protected UBE2G2 from degradation and increased the steady state level of this E2
"SSWARQESLQERKQALYEYARRRFTER (also: FITC label, position not given here) [FITC-labeled G2BR^AUP1 peptide]",7.1,4.3,–,–
B1,–,–,–,binding to UBE2G2 [4]: eliminated detectable binding to UBE2G2; restoration of NHK degradation [5]: failed to restore NHK degradation
B2,–,–,3.1,–
B3,–,–,2.7,–
"WSADERQRMLVQRKDELLQQARKRFLNK (also: FITC label, position not given here) [FITC-labeled G2BR^gp78 peptide]",15.1,10,–,–
